{"source": "paper PMC9378516", "about": "(Journal of molecular biology, 2022)", "proteins": {"B1": {"name": "TRF2 (hTERF2), full-length construct, residues 5-542 (natural protein, human, UniProt Q15554-3 5-542, looked up)", "chain": "AGTAGPASGPGVVRDPAASQPRKRPGREGGEGARRSDTMAGGGGSSDGSGRAAGRRASRSSGRARRGRHEPGLGGPAERGAGEARLEEAVNRWVLKFYFHEALRAFRGSRYGDFRQIRDIMQALLVRPLGKEHTVSRLLRVMQCLSRIEEGENLDCSFDMEAELTPLESAINVLEMIKTEFTLTEAVVESSRKLVKEAAVIICIKNKEFEKASKILKKHMSKDPTTQKLRNDLLNIIREKNLAHPVIQNFSYETFQQKMLRFLESHLDDAEPYLLTMAKKALKSESAASSTGKEDKQPAPGPVEKPPREPARQLRNPPTTIGMMTLKAAFKTLSGAQDSEAAFAKLDQKDLVLPTQALPASPALKNKRPRKDENESSAPADGEGGSELQPKNKRMTISRLVLEEDSQSTEPSAGLNSSQEAASAPPSKPTVLNQPLPGEKNPKVPKGKWNSSNGVEEKETWVEEDELFQVQAAPDEDSTTNITKKQKWTVEESEWVKAGVQKYGEGNWAAISKNYPFVNRTAVMIKDRWRTMKRLGMN"}}, "molecular_target": "the molecule itself", "experiment": "AUC"}
{"protein": "B1", "values": [{"measurement": "stoichiometry N", "value": 2}]}
